First the molecules themselves.
B1: variant 5-28 (Fc fusion)
VHH: EVQLVESGGGLVQPGGSLRLSCAASGGTFSVFAMGWFRQVPGKERELVAEITAGGSTYYADSVKGRFTISADNSKNTAYLQMNSLKPEDTAVYYCAVDGPFGWGQGTLVTVSS
B2: variant 5-22 (Fc fusion)
VHH: EVQLVESGGGLVQPGGSLRLSCAASGFTFNVFAMGWFRQAPGKEREFVAAINWSDSRTDYADSVKGRFTISADNSKNTAYLQMNSLKPEDTAVYYCASGSDNRARELSRYEYVWGQGTLVTVSS
B3: variant 5-32 (Fc fusion)
VHH: EVQLVESGGGLVQPGGSLRLSCAASGFTPDNYAMGWFRQAPGKEREFVAALGWSGVTTYHYYADSVKGRFTISADNSKNTAYLQMNSLKPEDTAVYYCASDESDAANWGQGTLVTVSS
B4: variant 5-21 (Fc fusion)
VHH: EVQLVESGGGLVQPGGSLRLSCAASGGTFTTYHMGWFRQAPGKEREFVAHISTGGATNYADSVKGRFTISADNSKNTAYLQMNSLKPEDTAVYYCATFPAIVTDSDYDLGNDWGQGTLVTVSS
B5: variant 5-52 (Fc fusion)
VHH: EVQLVESGGGLVQPGGSLRLSCAASGEKFSDHWMGWFRQAPGKEREFVATITFSGARTAYADSVKGRFTISADNSKNTAYLQMNSLKPEDTAVYYCAALIKPSSTDRIFEEWGQGTLVTVSS
B6: variant 5-23 (Fc fusion)
VHH: EVQLVESGGGLVQPGGSLRLSCAASGSIFSIDVMGWFRQAPGKEREFVAAISWSGESTLYADSVKGRFTISADNSKNTAYLQMNSLKPEDTAVYYCAAFDGYSGSDWGQGTLVTVSS
B7: variant 5-3 (Fc fusion)
VHH: B6 VHH with A50G, E56D, S103T
B8: variant 5-66 (Fc fusion)
VHH: B6 VHH with S27N, I28T, S30T, D32N, S52N, S54N, E56G, S57T, S105I
B9: variant 5-17 (Fc fusion)
VHH: EVQLVESGGGLVQPGGSLRLSCAASGPTFSIYAMGWFRQAPGKEREFVAGIRWSDVYTQYADSVKGRFTISADNSKNTAYLQMNSLKPEDTAVYYCALDIDYRDWGQGTLVTVSS
B10: variant 5-39 (Fc fusion)
VHH: B9 VHH with P27V, F29L, S30D, I31L, S54T, V56A, Q59E, L98V
B11: variant 6-2 (Fc fusion)
VHH: EVQLVESGGGLVQPGGSLRLSCAASGFTMSSSWMGWFRQAPGKEREFVTVISGVGTSYADSVKGRFTISADNSKNTAYLQMNSLKPEDTAVYYCARGPDSSGYGFDYWGQGTLVTVSS
B12: variant 5-65 (Fc fusion)
VHH: EVQLVESGGGLVQPGGSLRLSCAASGNIDRLYAMGWFRQAPGKEREGVAAIDSDGSTDYADSVKGRFTISADNSKNTAYLQMNSLKPEDTAVYYCAALIDYGLGFPIEWGQGTLVTVSS
B13: variant 5-60 (Fc fusion)
VHH: EVQLVESGGGLVQPGGSLRLSCAASGRSFSSHRMGWFRQAPGKEREFVAAIMWSGSHRNYADSVKGRFTISADNSKNTAYLQMNSLKPEDTAVYYCAAIAYEEGVYRWDWGQGTLVTVSS
B14: variant 5-15 (Fc fusion)
VHH: EVQLVESGGGLVQPGGSLRLSCAASGFTFDGAAMGWFRQAPGKEREFVATIRWTNSTDYADSVKGRFTISADNSKNTAYLQMNSLKPEDTAVYYCARGRYGIVERWGQGTLVTVSS
B15: variant 5-56 (Fc fusion)
VHH: EVQLVESGGGLVQPGGSLRLSCAASGRTFSSNMGWFRQAPGKEREFVARIFGGDRTLYADSVKGRFTISADNSKNTAYLQMNSLKPEDTAVYYCADINGDWGQGTLVTVSS
B16: variant 5-20 (Fc fusion)
VHH: EVQLVESGGGLVQPGGSLRLSCAASGRTIVPYTMGWFRQAPGKERELVAAISPSAFTEYADSVKGRFTISADNSKNTAYLQMNSLKPEDTAVYYCAARRWGYDWGQGTLVTVSS
notes: VHH-Fc
B17: variant 5-27 (Fc fusion)
VHH: EVQLVESGGGLVQPGGSLRLSCAASGRANSINWMGWFRQAPGKEREFVATITPGGNTNYADSVKGRFTISADNSKNTAYLQMNSLKPEDTAVYYCAAAAGSTWYGTLYEYDWGQGTLVTVSS
B18: variant 5-49 (Fc fusion)
VHH: EVQLVESGGGLVQPGGSLRLSCAASGRTSTVNGMGWFRQAPGKEREFVASISQSGAATAYADSVKGRFTISADNSKNTAYLQMNSLKPEDTAVYYCAADRTYSYSSTGYYWGQGTLVTVSS
B19: variant 5-68 (Fc fusion)
VHH: EVQLVESGGGLVQPGGSLRLSCAASGFTFDHYTMGWFRQAPGKEREFVAAISGSENVTSYADSVKGRFTISADNSKNTAYLQMNSLKPEDTAVYYCAAEPYIPVRTMRHMTFLTWGQGTLVTVSS
B20: variant 5-13 (Fc fusion)
VHH: EVQLVESGGGLVQPGGSLRLSCAASGFTFDYYTMGWFRQAPGKEREFVAAIRSSGGLFYADSVKGRFTISADNSKNTAYLQMNSLKPEDTAVYYCAAYLDGYSGSWGQGTLVTVSS
B21: variant 5-42 (Fc fusion)
VHH: EVQLVESGGGLVQPGGSLRLSCAASGFTPDDYAMGWFRQAPGKEREFVASIGYSGRSNSYNYYADSVKGRFTISADNSKNTAYLQMNSLKPEDTAVYYCAIAHGSSTYNWGQGTLVTVSS
B22: variant 5-59 (Fc fusion)
VHH: EVQLVESGGGLVQPGGSLRLSCAASGLTFSLYRMCWFRQAPGKEREEVSCISNIDGSTYYADSVKGRFTISADNSKNTAYLQMNSLKPEDTAVYYCAADLLGDSDYEPSSGFGWGQGTLVTVSS
B23: variant 5-64 (Fc fusion)
VHH: EVQLVESGGGLVQPGGSLRLSCAASGTSISNRVMGWFRQAPGKERELVARIYTGGDTLYADSVKGRFTISADNSKNTAYLQMNSLKPEDTAVYYCAARKIYRSLSYYGDYDWGQGTLVTVSS
B24: variant 5-67 (Fc fusion)
VHH: EVQLVESGGGLVQPGGSLRLSCAASGFNVNDYAMGWFRQAPGKEREFVAGITSSVGVTNYADSVKGRFTISADNSKNTAYLQMNSLKPEDTAVYYCAADIFFVNWGRGTLVTVSS
B25: variant 5-63 (Fc fusion)
VHH: EVQLVESGGGLVQPGGSLRLSCAASGFSLDYYDMGWFRQAPGKEREFVAALGWSGGSTDYADSVKGRFTISADNSKNTAYLQMNSLKPEDTAVYYCAAGNGGRYGIVERWGQGTLVTVSS
B26: variant 5-1 (Fc fusion)
VHH: EVQLVESGGGLVQPGGSLRLSCAASGGTFSSIGMGWFRQAPGKEREFVAAISWDGGATAYADSVKGRFTISADNSKNTAYLQMNSLKPEDTAVYYCAKEDVGKPFDWGQGTLVTVSS
notes: VHH-Fc
B27: variant 6-1 (Fc fusion)
VHH: EVQLVESGGGLVQPGGSLRLSCAASGRTFGNYNMGWFRQAPGKEREFVATINSLGGTSYADSVKGRFTISADNSKNTAYLQMNSLKPEDTAVYYCARVDYYMDVWGQGTLVTVSS
B28: variant 5-16 (Fc fusion)
VHH: EVQLVESGGGLVQPGGSLRLSCAASGRTHSIYPMGWFRQAPGKERELVAAIHSGGATVYADSVKGRFTISADNSKNTAYLQMNSLKPEDTAVYYCAARRWIPPGPIWGQGTLVTVSS
B29: variant 5-53 (Fc fusion)
VHH: EVQLVESGGGLVQPGGSLRLSCAASGLTVVPYAMGWFRQAPGKEREFVAAIRRSAVTNYADSVKGRFTIIADNSKNTAYLLMNSLKPEDTAVYYCAARRWGYHYWGQGTLVTVSS
B30: variant 5-37 (Fc fusion)
VHH: EVQLVESGGGLVQPGGSLRLSCAASGSTFSINAMGWFRQAPGKEREFVGGISRSGATTNYADSVKGRFTISADNSKNTAYLQMNSLKPEDTAVYYCAADGVPEYSDYASGPVWGQGTLVTVSS
notes: VHH-Fc
B31: variant 5-55 (Fc fusion)
VHH: EVQLVESGGGLVQPGGSLRLSCAASGIDVNRNAMGWFRQAPGKEREFVAAITWSGGWRYYADSVKGRFTISADNSKNTAYLQMNSLKPEDTAVYYCATTFGDAGIPDQYDFGWGQGTLVTVSS
B32: variant 5-29 (Fc fusion)
VHH: EVQLVESGGGLVQPGGSLRLSCAASGFTFDDYPMGWFRQAPGKEREGVASVLRGGYTWYADSVKGRFTISADNSKNTAYLQMNSLKPEDTAVYYCAKDWATGLAWGQGTLVTVSS
B33: variant 5-35 (Fc fusion)
VHH: EVQLVESGGGLVQPGGSLRLSCAASGPTFSIYAMGWFRQAPGKERELVAGISWNGGSTNYADSVKGRFTISADNSKNTAYLQMNSLKPEDTAVYYCALRRRFGGQEWGQGTLVTVSS
B34: variant 5-47 (Fc fusion)
VHH: EVQLVESGGGLVQPGGSLRLSCAASGFTFGSYDMGWFRQAPGKEREFVTAINWSGARTAYADSVKGRFTISADNSKNTAYLQMNSLKPEDTAVYYCAARSVYSYEYNWGQGTLVTVSS

Where a chain is given by its changes, count along the chain named.

The target in this test is CV S-protein construct 6 trimer TP31001F (SARS-CoV-2, UniProt P0DTC2 14-1208). As to the kind of experiment: SPR.
Take B1: the Kd came to 1 nM.

On to B2, for which binding was put at a Kd of 7.2 nM.

The molecule B3 gave a Kd of 0.1 nM.

With B4, the Kd was 10 nM.

In the case of B5, binding was put at a Kd of 0.9 nM.

Take B6: the Kd was found to be 4.2 nM.

Consider B7, for which the dissociation constant (Kd) came out at 5.6 nM.

The molecule B8 yielded a dissociation constant Kd of 98.9 nM.

B9 had a dissociation constant (Kd) of 18.9 nM.

B10 yielded a Kd of 37.6 nM.

For B11, the dissociation constant (Kd) was found to be 1.2 nM.

With B12, binding was put at a Kd of 421 nM.

In turn, B13 came in with a dissociation constant (Kd) of 0.8 nM.

B14 came in with a Kd of 2.3 nM.

For B15, the Kd was 2.8 nM.

Molecule B16 had a dissociation constant (Kd) of 1.1 nM.

B17 came in with a dissociation constant (Kd) of 110 nM.

Turning to B18, the dissociation constant Kd worked out at 3.4 nM.

The molecule B19 displayed a dissociation constant (Kd) of 4.8 nM.

B20 returned an equilibrium dissociation constant (Kd) of 3.8 nM.

With B21, the Kd was 0.6 nM.

Consider B22, for which the Kd amounted to 6.4 nM.

With B23, binding was characterised by a dissociation constant (Kd) of 221 nM.

B24 yielded a Kd of 1 nM.

The molecule B25 gave a Kd of 0.4 nM.

Consider B26, for which the dissociation constant (Kd) came to 0.4 nM.

For the molecule B27, binding was characterised by a dissociation constant (Kd) of 1.2 nM.

B28 gave a Kd of 1.9 nM.

As for B29, the affinity, expressed as Kd, was 684 nM.

For the molecule B30, the Kd amounted to 1.8 nM.

B31 registered a Kd of 0.6 nM.

Turning to B32, the Kd was 1 nM.

B33: the Kd turned out to be 16 nM.

For the molecule B34, the Kd stood at 0.7 nM.

For the origin of these results see US20210355194A1 (TWIST BIOSCIENCE, published 2021).
